Laboratory results taken from patent publication US9034341B2, “Control of RAGE fusion protein glycosylation and RAGE fusion protein compositions” (TransTech Pharma, LLC, priority 2009, dated 2015).

T1: S100b (Bos taurus, UniProt P02638)
T1 construct: purchased Calbiochem 559290
T1 sequence (P02638 1-92): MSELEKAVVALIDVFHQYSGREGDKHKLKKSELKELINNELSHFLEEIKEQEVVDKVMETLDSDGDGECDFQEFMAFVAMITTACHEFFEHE

B1: S1F2: sRAGE-Ig fraction from untreated cells, 2-glycan occupancy (protein)
chain: QNITARIGEPLVLKCKGAPKKPPQRLEWKLNTGRTEAWKVLSPQGGGPWDSVARVLPNGSLFLPAVGIQDEGIFRCQAMNRNGKETKSNYRVRVYQIPGKPEIVDSASELTAGVPNKVGTCVSEGSYPAGTLSWHLDGKPLVPNEKGVSVKEQTRRHPETGLFTLQSELMVTPAPGGDPRPTFSCSFSPGLPRHRALRTAPIQPRVWEPVPLEEVQLVVEPEGGAVAPPSVFLFPPKPKDTLMISRTPEVTCVVVDVSHEDPEVKFNWYVDGVEVHNAKTKPREEQYNSTYRVVSVLTVLHQDWLNGKEYKCKVSNKALPAPIEKTISKAKGQPREPQVYTLPPSRDELTKNQVSLTCLVKGFYPSDIAVEWESNGQPENNYKTTPPVLDSDGPFFLYSKLTVDKSRWQQGNVFSCSVMHEALHNHYTQKSLSLSPGK
B2: S2F2: sRAGE-Ig fraction from TMYCN treated cells, 2-glycan occupancy (protein)
chain: B1 chain
B3: S1F1: sRAGE-Ig fraction from untreated cells, 3-glycan occupancy (protein)
chain: B1 chain
B4: S2F3: sRAGE-Ig fraction from TMYCN treated cells, 0-glycan occupancy (aglycosylated variant) (protein)
chain: B1 chain
modifications: non-natural residues
B5: S2F1: sRAGE-Ig fraction from TMYCN treated cells, 3-glycan occupancy (protein)
chain: B1 chain

Assays:
S100b = target: T1, S100b; test: S100b binding ELISA; conditions: for Relative binding compared to control: binding to S100b relative to S1 control (untreated sRAGE-Ig)
Method: Peak fraction collection for S100b binding assay: sRAGE-Ig fusion protein samples were concentrated to 4.0 mg/mL using a 10K Amicon Ultra filtration column (Millipore, Bedford, Mass.) and then separated under the reversed-phase conditions for glycan site occupancy as described above. Three fractions representing the site occupancy variants of sRAGE-Ig were collected as triply glycosylated (fraction one, F1), doubly glycosylated (fraction two, F2), and aglycosylated (fraction three, F3). The collected samples were concentrated and exchanged into a stabilizing buffer. Protein concentration of the fraction samples was determined by 280 nm absorbance with a DU 650 spectrophotometer (Beckman Coulter, Fullerton, Calif.) before subjecting the protein to the S100b ELISA binding assay.
(§1) S100b binding ELISA: An ELISA assay plate was coated with 100 μL/well of 20 μg/mL S100b protein (Cat. No. 559290, Calbiochem, Gibbstown, N.J.) in coating buffer (Tris buffered saline [TBS], pH8.0, with 5 mM CaCl2) overnight at 4° C. The plate was then washed three times with blocking buffer (TBS pH8.0, with 5 mM CaCl2, 0.05% Tween20, and 1% bovine serum albumin [BSA]), and blocked with the blocking buffer for 1-1.5 hr. sRAGE-Ig fusion samples were prepared in a separate dilution plate, the highest concentration was 10 μg/mL in blocking buffer, with 1:4 serial dilution in blocking buffer down to 2.4 ng/mL. After blocking, the assay plate was washed with the blocking buffer and 100 μL of the samples were transferred from the dilution plate to the assay plate. The assay plate was incubated at room temperature for 2.5 hr. The assay plate was then washed three times with the blocking buffer, with 1 min soaking time between the washes. The horseradish peroxidase conjugated goat anti-human IgG (Cat. No. A2290, Sigma, St. Louis, Mo.) was added to the plate with 100 μL/well at 1:2500 dilution in the blocking buffer. The plate was incubated for 1 hr at room temperature. The assay plate was then washed three times with the blocking buffer again, and 100 μL 3,3′,5,5′-tetramethylbenzidine (TMB; Cat. No. 34022, Pierce, Rockford, Ill.) was added to each well and the plate was incubated for 8 minutes at room temperature. 100 μL of 1M H2SO4 was then added to each well, the plate was shaken and read at 450 nm on a microplate reader.

[1] = tested on: human Aβ peptides (Aβ1-40, Aβ1-28); test: Aβ peptide binding ELISA; conditions: for Relative binding compared to control: binding to Abeta relative to S1 control
Sequence of human Aβ peptides (Aβ1-40, Aβ1-28) (P05067 672-699 limits assumed): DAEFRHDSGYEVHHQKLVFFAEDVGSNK
Method: as §1
Assay for Aβ peptide binding activities: Briefly, two human Aβ peptides were tested: Aβ1-40 (Catalogue# A-1153-2, Rpeptide), and Aβ1-28 (Catalogue#24232, AnaSpec). The plates were coated by 20 μg/mL peptide in 1% NH4OH overnight at 4° C. The plate was then washed with blocking buffer (TBS pH8.0, 0.05% Tween20, and 1% BSA) and blocked for 1 hr at room temperature. All the other steps were performed essentially as described previously herein for S100b binding assay, supra.

[2] = versus unfractionated untreated S1

Molecule	Relative binding compared to control (S100b) [%]	Relative binding compared to control [1] [%]	fold increase in binding to S100b compared to fully occupied 3-glycan version (S100b; versus S1F1)	fold increase in binding to S100b compared to S1 control (S100b; [2])	fold increase in binding to Abeta compared to fully occupied 3-glycan version ([1]; versus S2F1)	fold increase in binding to Abeta compared to S1 control [1, 2]
B1	173	170	–	–	–	–
B2	180	238	–	–	–	–
B3	46	102	–	–	–	–
B4	–	–	ten-fold	five-fold	six-fold	three-fold
B5	20	49	–	–	–	–
